# Laboratory results: US11649275B2, “Dual agonist fusion proteins” (Duke University, priority 2018, dated 2023)
# B1: ELP-FGF21: Single agonist control: ELP (120 repeats, 4:1 Val:Ala) fused to mutated murine FGF21; SEQ ID NO:14 (protein)
# chain: GVGVPGVGVPGAGVPGVGVPGVGVPGVGVPGVGVPGAGVPGVGVPGVGVPGVGVPGVGVPGAGVPGVGVPGVGVPGVGVPGVGVPGAGVPGVGVPGVGVPGVGVPGVGVPGAGVPGVGVPGVGVPGVGVPGVGVPGAGVPGVGVPGVGVPGVGVPGVGVPGAGVPGVGVPGVGVPGVGVPGVGVPGAGVPGVGVPGVGVPGVGVPGVGVPGAGVPGVGVPGVGVPGVGVPGVGVPGAGVPGVGVPGVGVPGVGVPGVGVPGAGVPGVGVPGVGVPGVGVPGVGVPGAGVPGVGVPGVGVPGVGVPGVGVPGAGVPGVGVPGVGVPGVGVPGVGVPGAGVPGVGVPGVGVPGVGVPGVGVPGAGVPGVGVPGVGVPGVGVPGVGVPGAGVPGVGVPGVGVPGVGVPGVGVPGAGVPGVGVPGVGVPGVGVPGVGVPGAGVPGVGVPGVGVPGVGVPGVGVPGAGVPGVGVPGVGVPGVGVPGVGVPGAGVPGVGVPGVGVPGVGVPGVGVPGAGVPGVGVPGVGVPGVGVPGVGVPGAGVPGVGVPGVGVPGVGVPGVGVPGAGVPGVGVPGVGVPGVGVPGVGVPGAGVPGVGVPGVGVPGAYPIPDSSPLLQFGGQVRQRYLYTDDDQDTEAHLEIREDGTVVGAAHRSPESLLELKALKPGVIQILGVKASRFLCQQPDGALYGSPHFDPEACSFRERLLEDGYNVYQSEAHGLPLRLPQKDSPNQDATSWGPVRFLPMPGLLHEPQDQAGFLPPEPPDVGSSDPLSMVEGSQGRSPSYASG
# How the values were obtained:
# [1] = system: db/db mice; experiment: Chronic dosing study, weekly s.c. for four weeks (GTT, % HbA1c, body weight, food intake); assay type: in vivo
# Protocol: (§1) Animals: In vivo studies were conducted in accordance with the AAALAC-accredited Duke Institutional Animal Care and Use Committee. 5-week-old B6.BKS(D)-Lepr^db/J (“db/db”) male mice were purchased from Jackson Laboratory (Bar Harbor, Me.) and maintained on a 12 h/12 h light/dark cycle with ad libitum access to food (LabDiet 5053) and water. Animals were group-housed and allowed 1-week acclimation before stratification into control and treatment groups based on baseline ambient blood glucose levels and body weights.
# (§2) ELP fusion treatments: ELP fusion proteins were administered at 150-200 μM concentration via injection into the subcutaneous (s.c.) space on the hind flank. Animals received either a single s.c. injection for short-term studies or weekly s.c. injections for chronic studies. The “1:1 mixture” treatment group received a single injection containing an equimolar mixture of GLP1-ELP and ELP-FGF21, with the indicated dose referring to the dose of each respective fusion in the mixture. Vehicle control refers to PBS.
# Food Intake: For food intake studies, animals were group-housed 4 per cage, and food pellets were weighed every 1-2 days. Total cage food intake was calculated for each time increment, averaged per animal, and summed over the course of the study to yield a cumulative food intake per mouse. N=8 treatment groups were divided into 2 cages, allowing for an n=2 food intake standard error calculation.
# [2] = target: T1, murine β-Klotho and FGF receptor 1 (Mus musculus, UniProt P16092+Q99N32); experiment: ERK phosphorylation assay (FGF21 receptor agonism, HEK293 cells); assay type: cell-based; conditions: compared to native FGF21
# T1 construct: expressed in transfected cells; host or cells: HEK293
# Protocol: ERK phosphorylation assay: For quantitative evaluation of FGF21 in vitro activity, a HEK293 cell line was previously generated that stably expresses murine β-Klotho and FGF receptor 1 and thereby enables FGF21-mediated ERK1/2 phosphorylation. Cells were seeded at 5×10^4 cells/cm^2 and adhered overnight. After serum starvation for 6 h, cells were treated with serial dilutions of FGF21-containing fusion proteins or native mouse FGF21 (ProSpec-Tany, East Brunswick, N.J.) for 5 min. Cells were lysed and assessed for phospho-ERK1/2 and total ERK1/2 content using the AlphaLISA Surefire Ultra Assay Kits (PerkinElmer) and the EnSpire Alpha Plate Reader (PerkinElmer). Phospho-ERK1/2 was normalized to total ERK1/2 and fit to a three-parameter dose-response curve to determine EC50s using GraphPad Prism 8 software (La Jolla, Calif.).
# [3] = system: db/db mice; experiment: Short-term co-treatment pilot study, 48 h after single s.c. injection; assay type: in vivo; conditions: 48 h post-injection, 1000 nmol/kg s.c.
# Protocol: as §1, §2
# Ambient blood glucose measurements: Blood glucose levels were measured from a tail vein puncture with an AlphaTRAK 2 Blood Glucose Meter (Zoetis, Parsippany-Troy Hills, N.J.) every 24 h, 1-2 h following onset of the light cycle. […] Areas under the curve (AUCs) were calculated with GraphPad Prism 8 software using the trapezoidal rule and setting a Y=0 baseline. […]
# [4] = Pharmacokinetic study of radiolabeled ELP fusion depots after s.c. injection; assay type: in vivo, mice; conditions: component of 1:1 mixed depot, 1000 nmol/kg each
# Protocol: Pharmacokinetic studies: Tyrosine residues on GLP1-ELP, ELP-FGF21, or GLP1-ELP-FGF21 fusion proteins were reacted with Na^125I radionuclide (Perkin Elmer) using Pierce Pre-Coated Iodination Tubes (Thermo Fisher Scientific) and the indirect method for iodination. Radiolabeled protein was purified from unreacted radionuclide with Zeba Spin Desalting Columns (Thermo Fisher Scientific). Activities of radiolabeled constructs were measured with an Atomlab 400 Dose Calibrator (Biodex, Shirley, N.Y.) and correlated to protein concentration. Mice received a single s.c. injection of radiolabeled fusion, and 10 μL blood samples were collected at frequent time points from the tail vein and stored at room temperature until radioactivity quantification. Sample counts were measured at the end of the study on a Wallac Wizard 1480 Automatic Gamma Counter (Perkin Elmer). An activity vs. count standard curve was used to convert sample counts to activities, and subsequently to moles of drug.
# Pharmacokinetic analysis: The maximum serum concentration (Cmax) was recorded as observed, as well as time to reach Cmax (tmax). […] Absorption half-life (t1/2, abs) was estimated from the slope of the linear regression curve. When a drug administered at an extravascular site yields a terminal half-life greater than that resulting from an i.v. bolus, the terminal half-life reflects the absorption half-life.
# T1 sequence (Q99N32 whole entry): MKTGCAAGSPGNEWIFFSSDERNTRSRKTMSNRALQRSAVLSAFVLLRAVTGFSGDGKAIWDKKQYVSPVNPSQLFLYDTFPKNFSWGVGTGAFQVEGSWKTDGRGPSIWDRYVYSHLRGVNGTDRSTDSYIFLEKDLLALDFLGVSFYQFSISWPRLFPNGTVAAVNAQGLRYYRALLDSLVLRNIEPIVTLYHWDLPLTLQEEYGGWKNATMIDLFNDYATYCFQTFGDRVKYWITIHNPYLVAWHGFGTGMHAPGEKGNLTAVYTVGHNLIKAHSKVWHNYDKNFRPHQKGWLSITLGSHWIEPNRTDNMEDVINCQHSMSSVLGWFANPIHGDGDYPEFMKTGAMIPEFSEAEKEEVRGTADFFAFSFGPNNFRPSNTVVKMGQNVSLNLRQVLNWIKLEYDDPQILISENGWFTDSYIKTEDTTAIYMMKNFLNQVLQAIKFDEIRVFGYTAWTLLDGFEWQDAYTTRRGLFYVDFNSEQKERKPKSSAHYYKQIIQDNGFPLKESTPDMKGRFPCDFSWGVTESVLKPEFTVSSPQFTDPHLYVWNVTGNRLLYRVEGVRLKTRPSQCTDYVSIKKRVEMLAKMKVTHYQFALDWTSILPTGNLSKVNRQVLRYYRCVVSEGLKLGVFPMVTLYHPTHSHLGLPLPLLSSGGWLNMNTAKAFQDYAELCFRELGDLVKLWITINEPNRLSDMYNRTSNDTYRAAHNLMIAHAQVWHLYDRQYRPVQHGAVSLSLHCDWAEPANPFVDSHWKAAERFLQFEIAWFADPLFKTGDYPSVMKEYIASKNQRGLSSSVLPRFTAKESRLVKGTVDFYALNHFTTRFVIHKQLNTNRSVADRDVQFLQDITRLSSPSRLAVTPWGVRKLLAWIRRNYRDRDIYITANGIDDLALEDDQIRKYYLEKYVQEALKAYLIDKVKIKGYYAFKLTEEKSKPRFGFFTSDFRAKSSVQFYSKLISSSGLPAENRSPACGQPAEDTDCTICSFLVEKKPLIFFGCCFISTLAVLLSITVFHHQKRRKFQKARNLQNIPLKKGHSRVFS
# T1 sequence (P16092 22-822): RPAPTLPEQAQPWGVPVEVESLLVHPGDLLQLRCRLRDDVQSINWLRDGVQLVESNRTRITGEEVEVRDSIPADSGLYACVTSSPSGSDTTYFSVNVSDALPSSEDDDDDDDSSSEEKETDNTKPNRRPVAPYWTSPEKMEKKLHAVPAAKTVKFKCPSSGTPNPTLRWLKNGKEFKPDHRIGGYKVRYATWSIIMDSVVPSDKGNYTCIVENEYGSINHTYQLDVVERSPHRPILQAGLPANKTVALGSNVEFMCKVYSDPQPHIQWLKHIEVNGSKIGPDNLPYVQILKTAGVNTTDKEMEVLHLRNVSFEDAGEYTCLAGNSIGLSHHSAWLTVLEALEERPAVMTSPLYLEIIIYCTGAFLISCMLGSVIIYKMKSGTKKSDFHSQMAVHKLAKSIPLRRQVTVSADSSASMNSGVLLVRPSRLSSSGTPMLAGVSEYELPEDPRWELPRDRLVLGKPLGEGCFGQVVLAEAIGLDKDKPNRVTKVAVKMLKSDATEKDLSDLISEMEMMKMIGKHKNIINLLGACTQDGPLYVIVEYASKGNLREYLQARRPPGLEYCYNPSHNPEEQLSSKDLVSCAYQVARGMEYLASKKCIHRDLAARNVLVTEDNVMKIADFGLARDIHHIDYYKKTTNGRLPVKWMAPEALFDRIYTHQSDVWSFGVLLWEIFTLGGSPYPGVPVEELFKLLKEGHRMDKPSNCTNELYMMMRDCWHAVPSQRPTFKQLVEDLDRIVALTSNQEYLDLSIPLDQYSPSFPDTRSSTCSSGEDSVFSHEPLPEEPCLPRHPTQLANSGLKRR
molecule,measurement,setting,value
B1,fasting blood glucose levels,"[1]; 5 h fast, 3 days after the first dosing cycle, 1000 nmol/kg s.c.",237 ± 21 mg/dL
same,% HbA1c elevation relative to control,[1]; four-week study,significantly reduced % HbA1c elevation relative to control
same,effect on body weight / weight gain compared to vehicle,[1]; four-week treatment period,did not induce a significant effect on body weight
same,GTT AUC,[1]; i.p. glucose tolerance test 3 days after the first dosing cycle,significantly decreased GTT AUC compared to vehicle
same,fasting plasma insulin,"[1]; prior to glucose challenge, 3 days after the first dosing cycle",equivalent levels of fasting plasma insulin
same,increase in FGF21 receptor EC50 on fusion of FGF21 to an ELP,[2],approximately twenty-fold
same,"body weight, % change from pre-injection weight",[3],−0.9±0.3%
same,day by which plasma levels dropped below 100 nM,[4],≤ 4 days
